Laboratory results published in patent publication US20160145308A1 (SANFORD BURNHAM MEDICAL RESEARCH INSTITUTE, published 2016).
Where no end group is shown, it is not given here. The star is where a group is joined. FITC = O=C1OC2(c3ccc(O)cc3Oc3cc(O)ccc32)c2ccc(NC(=S)*)cc21

T1: CNGB3-MYC/His fusion protein (human, UniProt Q9NQW8 1-809)
T1 construct: Full-length CNGB3 cDNA in pcDNA3.1/myc-His-B, expressed in HeLa and HEK293T cells; also called recombinant CNGB3; not shown: C-terminal myc-His tag from the pcDNA3.1/myc-His-B vector
T1 sequence: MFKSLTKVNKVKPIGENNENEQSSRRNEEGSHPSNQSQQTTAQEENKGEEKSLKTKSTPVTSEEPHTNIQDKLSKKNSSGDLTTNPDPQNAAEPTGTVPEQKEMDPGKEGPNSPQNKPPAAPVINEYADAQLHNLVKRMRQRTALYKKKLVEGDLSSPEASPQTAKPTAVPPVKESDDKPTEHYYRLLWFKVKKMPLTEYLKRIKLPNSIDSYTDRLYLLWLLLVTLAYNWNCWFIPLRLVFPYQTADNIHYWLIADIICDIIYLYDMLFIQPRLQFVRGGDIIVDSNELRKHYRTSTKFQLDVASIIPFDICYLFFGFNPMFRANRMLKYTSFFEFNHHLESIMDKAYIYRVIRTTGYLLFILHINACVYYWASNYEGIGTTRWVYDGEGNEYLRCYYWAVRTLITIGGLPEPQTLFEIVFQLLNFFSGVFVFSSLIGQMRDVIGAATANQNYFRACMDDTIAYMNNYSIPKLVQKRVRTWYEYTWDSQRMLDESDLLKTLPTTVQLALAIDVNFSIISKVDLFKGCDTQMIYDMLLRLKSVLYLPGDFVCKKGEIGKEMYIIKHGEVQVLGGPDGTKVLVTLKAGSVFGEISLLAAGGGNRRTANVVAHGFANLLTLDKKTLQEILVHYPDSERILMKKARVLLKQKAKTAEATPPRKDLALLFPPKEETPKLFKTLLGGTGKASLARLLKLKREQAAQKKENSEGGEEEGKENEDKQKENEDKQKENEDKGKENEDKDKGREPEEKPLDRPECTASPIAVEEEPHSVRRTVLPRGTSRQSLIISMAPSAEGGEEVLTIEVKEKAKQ


Assays:
[1] = target: T1, CNGB3-MYC/His fusion protein; assay: fluorescence microscopy of HeLa cells transfected with CNGB3-MYC; FITC-z13 in the culture medium
Method: When FITC-z13 was added to culture medium of CNGB3-MYC-expressing HeLa cells, FITC-z13 bound to sites marked by MYC-epitope expression. […] Antibody specificity was validated by immunostaining of CNGB3-Myc expressed in HeLa cells. This antibody strongly stained glandular epithelia of endometriosis in tissue sections.
CNGB3 cDNA was kindly provided by Dr. Hisao Ueyama, Department of Ophthalomology, Shiga University of Medical Science, Japan. cDNA encoding full-length CNGB3 was excised by HindIII and BsrGI and ligated into the HindIII and Asp718I sites of pcDNA3.1/myc-His-B vector (Invitrogen). HeLa cells were transfected with this vector, and expression of CNGB3-MYC/His fusion protein was determined by immunohistochemistry with an anti-MYC antibody and the anti-CNGB3 antibody (clone 3B2) described above. To test binding of z13 peptide to CNGB3, FITC-z13 was added (5 μg/ml) to the medium of HeLa cells transfected by the above-described vector and incubated at 37° C. for 15 min. Cells were washed with PBS, fixed with 4% PFA in PBS, and observed under a fluorescence microscope.

[2] = target: T1, CNGB3-MYC/His fusion protein; assay: fluorescence microscopy of CNGB3-MYC expressing HEK293T cells, 37° C. for 30 min, Alexa 488-conjugated avidin
Method: When dKLAK-z13 was added to culture medium of HEK293T cells transfected by expression vector for CNGB3-MYC, apoptosis was not induced, however. It was realized that this lack of effect could be due to the fact that receptor-bound dKLAK-z13 localizes to the luminal side of endosomes, a prediction supported by the endosome-like pattern of fluorescent z13. To release dKLAK-z13 from the endosomes to the cytoplasm, an endosome-escaping 18-mer peptide […] (SEQ ID NO:38; here abbreviated as HLAH) was devised by replacing lysines in KLAKLAK (SEQ ID NO:39) with histidines, to provide histidine-rich sequences capable of destabilizing endosome membranes at acidic pH (Midoux et al., 2002; Pichon et al., 2001). […] For this experiment, biotin-z13 was bound to CNGB3-MYC expressing HEK293T cells at 37° C. for 30 min with or without HLAH-z13. Cells were stained by Alexa 488-conjugated avidin followed by DAPI nuclear staining.

Row | Binder | binding result [1] | binding result [2]
1 | {FITC}-VRRADNRPG (Synthetic fluorescence-tagged z13 peptide; also called fluorescent FITC-z13; z13 peptide with an N-terminal FITC-tag) [FITC-z13] | binds | –
2 | VRRADNRPG (also: biotinylated (position not given here), also called biotin-z13) [biotinylated z13] | – | binds
